For one experiment, the target named is T1, HEK-TROP2 Δ27-104 (human, UniProt P09758).
T1 sequence (membrane protein on transfected HEK cells, looked up): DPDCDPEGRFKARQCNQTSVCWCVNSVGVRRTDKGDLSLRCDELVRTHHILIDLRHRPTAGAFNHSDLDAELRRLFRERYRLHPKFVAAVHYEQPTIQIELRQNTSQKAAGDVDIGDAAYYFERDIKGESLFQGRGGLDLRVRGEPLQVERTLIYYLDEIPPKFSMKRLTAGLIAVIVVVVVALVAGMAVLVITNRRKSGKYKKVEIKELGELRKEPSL
Kind of experiment: flow cytometry, 100 nM antibody, transiently transfected HEK cells, APC anti-human Fc. The protocol: (§1) To determine the effect of TROP2 truncations on the binding ability of anti-TROP2 sdAbs, the HEK parental cells were transiently transfected with human TROP2 mutants by lipofectamine. 24 hours after transfection, cells were collected and stained with anti-TROP2 antibodies (FIG. 13A and FIG. 13B). In brief, 1×10⁵ cells were incubated with an Fc receptor blocking antibody (1/100 dilution) for 10 minutes at room temperature. Anti-TROP2 antibodies were diluted in FACS staining buffer to 100 nM and added and incubated with cells for 30 minutes on ice. After washing three times with FACS staining buffer, APC-conjugated secondary antibodies recognizing the human Fc region (Biolegend, Cat #410712) were mixed with cells. After staining for 30 minutes, cells were washed three times, followed by resuspension into 100 μL of 7-Amino-Actinomycin D (7-AAD) solution (BD Biosciences, Cat #559925).

In the next experiment the target is T2, HEK-TROP2 Δ27-73 (human, UniProt P09758).
T2 construct: deletion of residues 27-73, transiently expressed on HEK cells
T2 sequence (membrane protein on transfected HEK cells, looked up): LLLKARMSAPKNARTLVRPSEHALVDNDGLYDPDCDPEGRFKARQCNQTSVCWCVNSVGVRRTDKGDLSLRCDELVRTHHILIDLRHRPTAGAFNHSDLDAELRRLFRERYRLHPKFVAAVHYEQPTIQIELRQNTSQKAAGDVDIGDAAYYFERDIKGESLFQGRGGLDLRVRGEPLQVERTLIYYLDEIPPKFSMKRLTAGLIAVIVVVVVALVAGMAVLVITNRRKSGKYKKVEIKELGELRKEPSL
The experiment is described as above. Here is the method: as §1

Experiment [1] deals with T3, recombinant human TROP2 extracellular domain (aa 1-274) comprising His tag (human, UniProt P09758 27-274).
T3 construct: Used here for all assays on recombinant human TROP2 (ELISA, immunoblot, SPR, crystal), although only some of them name the catalogue number; also called human recombinant TROP2; recombinant human TROP2 protein; not shown: His tag
T3 sequence: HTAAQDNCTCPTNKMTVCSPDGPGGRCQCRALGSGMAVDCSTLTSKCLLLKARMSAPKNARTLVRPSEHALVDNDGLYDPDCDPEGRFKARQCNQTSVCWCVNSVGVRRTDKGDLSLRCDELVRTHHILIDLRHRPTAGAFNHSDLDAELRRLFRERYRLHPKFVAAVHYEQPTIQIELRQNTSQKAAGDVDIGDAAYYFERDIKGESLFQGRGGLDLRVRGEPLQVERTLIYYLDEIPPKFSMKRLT
Kind of experiment: competitive ELISA on coated recombinant human TROP2, competitor KD002-His (14285.7 pM per text), anti-His-HRP. The protocol: (§2) The epitope characterization was assessed by competitive ELISA (FIG. 8 and FIG. 9). Microplates were coated with human recombinant TROP2 at 4° C. overnight. After washing, plates were blocked with blocking buffer (PBS+2% BSA), for 1 hour at room temperature. Meanwhile, the dilution for anti-TROP2 VHH sdAbs was prepared with blocking buffer making two different dilutions depending on the tag. For sdAbs with His tag, the antibody was diluted to 28571.4 pM. For sdAbs without tag, antibodies were serially diluted from 2857142.9 pM to 0.29 pM (8 dilutions, 10×). After that, equal volume of the his-tagged sdAbs and serial diluted non-tagged sdAbs were mixed, to make the final concentration of his-tagged sdAbs 14285.7 pM and non-tagged sdAbs from 1428571.4 pM to 0.14 pM. After washing two times, the mixed antibody contents were added into the wells and the plates were incubated for 2 hours at room temperature. The HRP-conjugated anti-6× His was diluted to 1:5000 and added to the wells after washing three times. Any unbound conjugate was removed by washing after 1 hour incubation at room temperature, and the colorimetric reaction was performed by adding the same volume of Supersignal ELISA Pico Luminol/Enhancer and SuperSignal ELISA Pico Stable Peroxide Solution and detected on SpectraMax i3x Microplate Reader. Positive and negative controls were included in each plate.

Experiment [2] concerns the target T3, recombinant human TROP2 extracellular …. Briefly: SPR.
For experiment [3] the target is unchanged. Kind of experiment: competitive ELISA on coated recombinant human TROP2, competitor KD003-His (14285.7 pM per text), anti-His-HRP. The protocol: as §2
Experiment [4] addresses T4, recombinant human IGFBP-1 (human, UniProt P08833 26-259).
T4 construct: also called rhIGFB-1
T4 sequence (looked up): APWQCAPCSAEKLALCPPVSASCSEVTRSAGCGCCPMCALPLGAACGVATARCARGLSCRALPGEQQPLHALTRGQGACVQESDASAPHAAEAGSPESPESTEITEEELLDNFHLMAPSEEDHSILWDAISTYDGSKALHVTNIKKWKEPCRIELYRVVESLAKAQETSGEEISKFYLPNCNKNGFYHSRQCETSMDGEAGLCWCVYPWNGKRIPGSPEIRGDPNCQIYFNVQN
Briefly: ELISA on coated recombinant protein, 200 nM antibody, RLU.

The next experiment concerns the target T5, recombinant human EpCAM (human, UniProt P16422 24-265).
T5 construct: also called rhEpCAM
T5 sequence (looked up): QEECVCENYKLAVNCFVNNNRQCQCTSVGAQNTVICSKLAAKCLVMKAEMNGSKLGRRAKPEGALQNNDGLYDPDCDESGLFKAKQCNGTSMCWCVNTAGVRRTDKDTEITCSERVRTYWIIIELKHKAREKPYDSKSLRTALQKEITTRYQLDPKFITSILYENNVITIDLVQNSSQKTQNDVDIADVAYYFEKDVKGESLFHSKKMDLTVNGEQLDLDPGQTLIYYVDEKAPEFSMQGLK
The experiment is described as above.

The next experiment has as its target T6, BSA (bovine, UniProt P02769).
T6 construct: also called bovine serum albumin
The experiment is described as above.

T6 sequence (P02769 25-607 limits assumed): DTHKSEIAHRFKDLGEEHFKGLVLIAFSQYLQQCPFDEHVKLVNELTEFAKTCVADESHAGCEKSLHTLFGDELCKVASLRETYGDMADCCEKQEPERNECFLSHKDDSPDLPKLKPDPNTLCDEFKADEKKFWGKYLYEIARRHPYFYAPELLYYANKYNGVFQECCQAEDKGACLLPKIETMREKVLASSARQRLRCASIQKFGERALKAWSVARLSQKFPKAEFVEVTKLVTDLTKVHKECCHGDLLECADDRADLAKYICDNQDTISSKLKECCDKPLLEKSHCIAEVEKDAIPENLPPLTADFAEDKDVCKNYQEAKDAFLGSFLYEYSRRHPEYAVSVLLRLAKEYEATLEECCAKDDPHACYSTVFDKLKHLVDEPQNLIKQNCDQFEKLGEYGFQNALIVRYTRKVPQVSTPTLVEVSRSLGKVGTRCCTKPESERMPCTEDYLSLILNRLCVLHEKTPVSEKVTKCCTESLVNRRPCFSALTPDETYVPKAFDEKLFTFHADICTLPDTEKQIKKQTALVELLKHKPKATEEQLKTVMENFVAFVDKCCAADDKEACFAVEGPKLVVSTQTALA

B1: KD007 (antibody, human IgG1, V domains shown)
VH: QVQLQESGGGLVQPGGSLRLSCAASGFAFSFYAMAWYRQAPGKQRDMVATITAYGNTNYADSVKGRFTTSRDNAKNTVYLQMNSLKPEDTAVYVCNANLPSASHNYWGQGTQVTVSS
notes: also called anti-TROP2 sdAb KD007
On to B1, for which the binding result in the experiment with HEK-TROP2 Δ27-104 and with HEK-TROP2 Δ27-73 was “no binding (tested: 100 nM)” each time.

B2: KD001 (antibody, human IgG1, V domains shown)
VH: QVQLQESGGGMVHPGGSLRLSCAASGFTFSGSDMSWVRQAPGKGPEWVSYITSGGTTYYPDSVKGRFTISRDNAKNTLYLQMNSLTPDDTALYRCAKARLTDSHYVEDAWGQGTQVTVSS
notes: also called anti-TROP2 sdAb KD001
Consider B2, for which the “IC50 (read off the curve)” value in experiment [1] and in experiment [3] was ~40 nM in each case. Further, in experiment [2], the Kd is 0.0826 nM. In experiment [2], the koff was found to be 7.54e-05 s⁻¹. Besides, in experiment [2], the kon was 913000 M⁻¹ s⁻¹. The binding result in the experiment with HEK-TROP2 Δ27-104 is recorded as “no binding (tested: 100 nM)”; with HEK-TROP2 Δ27-73 it was “no binding (tested: 100 nM)”; in experiment [4], “no binding (tested: 200 nM)”; with recombinant human EpCAM it was “no binding (tested: 200 nM)”; with BSA, “no binding (tested: 200 nM)”.

B3: KD004 (antibody, human IgG1, V domains shown)
VH: QVQLQESGGGLVQPGRSLRLSCAASGFTFSGSDMSWVRQAPGKGPEWVSYITGSGTTYYPDSVKGRFTTSRDNAKNMLYLQMNSLKPDDTALYRCAKARLTDSHYVEDAWGQGTQVTVSS
notes: also called anti-TROP2 sdAb KD004
With B3, the “IC50 (read off the curve)” value in experiment [1] and in experiment [3] was ~40 nM each time. Moreover, in experiment [2], the Kd stood at 0.0294 nM. The koff in experiment [2] was determined as 4.42e-05 s⁻¹. Besides, in experiment [2], the kon stood at 1.51e+06 M⁻¹ s⁻¹. The binding result in the experiment with HEK-TROP2 Δ27-104 is given as “no binding (tested: 100 nM)”; in the experiment with HEK-TROP2 Δ27-73, “no binding (tested: 100 nM)”; in experiment [4], “no binding (tested: 200 nM)”; in the experiment with recombinant human EpCAM it was “no binding (tested: 200 nM)”; with BSA, “no binding (tested: 200 nM)”.

B4: KD005 (antibody, human IgG1, V domains shown)
VH: QVQLQESGGGLVEAGGSLRLSCAASGFTFSGSDMSWVRQAPGKGPEWVSYITSGGTTYYPDSVKGRFTISRDNAKNTLYLQMNSLKPDDTALYRCAKSRLTDSHYVEDAWGQGTQVTVSS
notes: also called anti-TROP2 sdAb KD005
Consider B4, for which the “IC50 (read off the curve)” value in experiment [1] and in experiment [3] was ~40 nM each time. Besides, the Kd in experiment [2] was 0.0268 nM. The koff in experiment [2] turned out to be 4.27e-05 s⁻¹. In experiment [2], the kon stood at 1.59e+06 M⁻¹ s⁻¹. In addition, the binding result in the experiment with HEK-TROP2 Δ27-104 is on record as “no binding (tested: 100 nM)”; with HEK-TROP2 Δ27-73, “no binding (tested: 100 nM)”; in experiment [4], “no binding (tested: 200 nM)”; with recombinant human EpCAM, “no binding (tested: 200 nM)”; in the experiment with BSA, “no binding (tested: 200 nM)”.

B5: KD002 (antibody, human IgG1, V domains shown)
VH: QVQLQESGGGMVQVGGSLRLSCAASGFPFSSADMSWVRQAPGKGPEWVSYINADGSKTYYPDSVKGRFTISRDNAKNTLYLLMNNLKPEDTALYRCARAKLTDTHYVEDYWGQGTQVTVSS
notes: also called anti-TROP2 sdAb KD002
Consider B5, for which the “IC50 (read off the curve)” value in experiment [1] and in experiment [3] was ~60 nM throughout. In addition, the Kd in experiment [2] worked out at 0.0432 nM. Besides, in experiment [2], the off-rate constant (koff) was determined as 5.69e-05 s⁻¹. In experiment [2], the kon worked out at 1.32e+06 M⁻¹ s⁻¹. In addition, the binding result is “no binding (tested: 100 nM)” in the experiment with HEK-TROP2 Δ27-104; “no binding (tested: 100 nM)” with HEK-TROP2 Δ27-73; “no binding (tested: 200 nM)” in experiment [4]; “no binding (tested: 200 nM)” in the experiment with recombinant human EpCAM; “no binding (tested: 200 nM)” with BSA.

B6: KD003 (antibody, human IgG1, V domains shown)
VH: QVQLQESGGGMVQPGGSLRLSCAASGFTFSNYDMSWVRQAPGKGPEWVSYINAGGSNTDYPDSVKGRFTISRDNAKNMLYLLMNNLKPEDTALYRCARAKLTDTHYVEDYWGQGTQVTVSS
notes: also called anti-TROP2 sdAb KD003
For the molecule B6, the entries for the “IC50 (read off the curve)” value in experiment [1] and in experiment [3] were ~40 nM and ~30 nM, respectively. For the same molecule, the Kd in experiment [2] came out at 0.0459 nM. For the same molecule, the koff in experiment [2] is 4.88e-05 s⁻¹. Moreover, the kon in experiment [2] amounted to 1.06e+06 M⁻¹ s⁻¹. For the same molecule, the binding result is given as “no binding (tested: 100 nM)” in the experiment with HEK-TROP2 Δ27-104; “no binding (tested: 100 nM)” with HEK-TROP2 Δ27-73; “no binding (tested: 200 nM)” in experiment [4]; “no binding (tested: 200 nM)” in the experiment with recombinant human EpCAM; “no binding (tested: 200 nM)” with BSA.

(Values after US20240360242A1 (KISOJI BIOTECHNOLOGY, published 2024).)
